Measurements taken from article PMC6412888, “Improving the Performance of Horseradish Peroxidase by Site-Directed Mutagenesis” (International Journal of Molecular Sciences, 2019).

B1: Benchmark rHRP (HRP variant C1A) (Armoracia rusticana) (protein)
chain: QLTPTFYDNSCPNVSNIVRDTIVNELRSDPRIAASILRLHFHDCFVNGCDASILLDNTTSFRTEKDAFGNANSARGFPVIDRMKAAVESACPRTVSCADLLTIAAQQSVTLAGGPSWRVPLGRRDSLQAFLDLANANLPAPFFTLPQLKDSFRNVGLNRSSDLVALSGGHTFGKNQCRFIMDRLYNFSNTGLPDPTLNTTYLQTLRGLCPLNGNLSALVDFDLRTPTIFDNKYYVNLEEQKGLIQSDQELFSSPNATDTIPLVRSFANSTQTFFNAFVEAMDRMGNITPLTGTQGQIRLNCRVVNSNS
notes: mature HRP C1A without plant leader; E. coli BL21(DE3) periplasm, non-glycosylated, IMAC purified; hemin and CaCl2 added

Key:
[1] = test system: T1, CCn1c(=NN=c2sc3cc(S(=O)(=O)O)ccc3n2CC)sc2cc(S(=O)(=O)O)ccc21; experiment: purified protein; type: biochemical, Armoracia rusticana
T1 construct: mature HRP C1A without plant leader; E. coli BL21(DE3) periplasm, non-glycosylated, IMAC purified; hemin and CaCl2 added

purified protein = substrate: CCn1c(=NN=c2sc3cc(S(=O)(=O)O)ccc3n2CC)sc2cc(S(=O)(=O)O)ccc21; experiment: purified protein; type: biochemical, Armoracia rusticana; details: 1 mM H2O2, 50 mM KH2PO4 pH 5, 30 °C
[2] = 1 mM H2O2, 50 mM BisTris/HCl pH 7, 7% glycerol, 100 mM NaCl, 30 °C
[3] = 1 mM H2O2, 50 mM KH2PO4 pH 5, 30 °C

Molecule	Km [1, 2] [mM]	Vmax [1, 2] [µM/min]	kcat [1, 2] [s⁻¹]	kcat/Km [1, 2] [M⁻¹ s⁻¹]	other results
Benchmark rHRP (HRP variant C1A) (Armoracia rusticana; N43D)	3.29 ± 0.33	52.8	1.04 ± 0.05	320 ± 40	
Benchmark rHRP (HRP variant C1A) (Armoracia rusticana; N87S)	3.22 ± 0.59	162	2.1 ± 0.19	640 ± 130	
Benchmark rHRP (HRP variant C1A) (Armoracia rusticana; N285D)	4.37 ± 0.86	53.4	1.1 ± 0.12	240 ± 50	
Benchmark rHRP (HRP variant C1A) (Armoracia rusticana; N285D/N298D/N43D/N87S)					Km [1, 3]: 0.45 ± 0.12 mM; Vmax [1, 3]: 1080 µM/min; kcat [1, 3]: 17.4 ± 1.01 s⁻¹; kcat/Km [1, 3]: 39100 ± 10500 M⁻¹ s⁻¹
Benchmark rHRP (HRP variant C1A) (Armoracia rusticana; N285D/N298D/N87S)	9.52 ± 6.89	240	4.81 ± 2.37	510 ± 440	
Benchmark rHRP (HRP variant C1A) (Armoracia rusticana; N298D)	7.85 ± 4.98	144	3 ± 1.25	380 ± 290	
Benchmark rHRP (HRP variant C1A) (Armoracia rusticana; N298D/N87S)	4.18 ± 3.55	60	1.5 ± 0.58	360 ± 340	
B1					Km (purified protein): 0.44 ± 0.10 mM; Vmax (purified protein): 120 µM/min; kcat (purified protein): 2.24 ± 0.11 s⁻¹; kcat/Km (purified protein): 5070 ± 1160 M⁻¹ s⁻¹
